# According to FireProtDB (doi:10.1038/s41598-020-57873-3):
# B1: I144P, Q8GB52 (parent)
# chain: MLKKVLSCCIAATFGIYSASSLAQSSVINSTENSQQPIAPLVLASSDDAITDRYIVVLKQPQMLMNDAAGLQQFTQQTVGLMANSFSIKTDDVFDSSIIGFVANLDALQLKQLRRDSRVEYIEQDQILSIDPVVSNEAVQSNAIWGLDRIDQRNLPLDRNYNANFDGFGVTAYVIDTGVNNNHEEFGGRSVSGYDFVDNDADSSDCNGHGTHVAGTIGGSQYGVAKNVNIVGVRVLSCSGSGTTSGVISGVDWVAQNASGPSVANMSLGGGQSTALDSAVQGAIQSGVSFMLAAGNSNADACNTSPARVPSGVTVGSTTSSDSRSSFSNWGSCVDLFAPGSQIKSAWYDGGYKTISGTSMATPHVAGVAALYLQENNGLTPLQLTGLLNSRASENKVSDTRGTTNKLLYSLADSGCEPDCGGPTPGPDPDGKLVSGVPVNGLSGSRGQKDYFYMDLQQGQQLTVVTIGGTGDADLYLRFGDKPTLNTWDCRPYRSGNSETCTVNVTQSGRYHVMLNAYSAYSGLTLQANF
# Variants of: B1
# Conditions: Vibrio sp. PA-44, pH 8.6, Thermal, structure 1SH7, whole UniProt chain shown
# [1] = CD, Glycine 25 mM, NaCl and CaCl2 100 mM and 15 mM
# [2] = CD, glycine, Nacl / Cacl2 100000 / 15000, transition: 2, reversible: no
# [3] = DSC, Glycine 25 mM, NaCl and CaCl2 100 mM and 15 mM
# [4] = DSC, glycine, Nacl / Cacl2 100000 / 15000, transition: 2, reversible: no
Variant,Tm [1],"change of melting temperature, mutant - wild type (higher = more stable) [1]",Tm [2],"change of melting temperature, mutant - wild type (higher = more stable) [2]",Tm [3],"change of melting temperature, mutant - wild type (higher = more stable) [3]",unfolding enthalpy (calorimetric) [3],Tm [4],"change of melting temperature, mutant - wild type (higher = more stable) [4]",unfolding enthalpy (calorimetric) [4]
MLKKVLSCCIAATFGIYSASSLAQSSVINSTENSQQPIAPLVLASSDDAITDRYIVVLKQPQMLMNDAAGLQQFTQQTVGLMANSFSIKTDDVFDSSIIGFVANLDALQLKQLRRDSRVEYIEQDQILSIDPVVSNEAVQSNAPWGLDRIDQRNLPLDRNYNANFDGFGVTAYVIDTGVNNNHEEFGGRSVSGYDFVDNDADSSDCNGHGTHVAGTIGGSQYGVAKNVNIVGVRVLSCSGSGTTSGVISGVDWVAQNASGPSVANMSLGGGQSTALDSAVQGAIQSGVSFMLAAGNSNADACNTSPARVPSGVTVGSTTSSDSRSSFSNWGSCVDLFAPGSQIKSAWYDGGYKTISGTSMATPHVAGVAALYLQENNGLTPLQLTGLLNSRASENKVSDTRGTTNKLLYSLADSGCEPDCGGPTPGPDPDGKLVSGVPVNGLSGSRGQKDYFYMDLQQGQQLTVVTIGGTGDADLYLRFGDKPTLNTWDCRPYRSGNSETCTVNVTQSGRYHVMLNAYSAYSGLTLQANF [I144P],65.1 °C,3.2 °C,65.1 °C,3.2 °C,65.7 °C,1.8 °C,137 kcal/mol,65.7 °C,1.8 °C,136 kcal/mol
MLKKVLSCCIAATFGIYSASSLAQSSVINSTENSQQPIAPLVLASSDDAITDRYIVVLKQPQMLMNDAAGLQQFTQQTVGLMANSFSIKTDDVFDSSIIGFVANLDALQLKQLRRDSRVEYIEQDQILSIDPVVSNEAVQSPAPWGLDRIDQRNLPLDRNYNANFDGFGVTAYVIDTGVNNNHEEFGGRSVSGYDFVDNDADSSDCNGHGTHVAGTIGGSQYGVAKNVNIVGVRVLSCSGSGTTSGVISGVDWVAQNASGPSVANMSLGGGQSTALDSAVQGAIQSGVSFMLAAGNSNADACNTSPARVPSGVTVGSTTSSDSRSSFSNWGSCVDLFAPGSQIKSAWYDGGYKTISGTSMATPHVAGVAALYLQENPGLTPLQLTGLLNSRASENKVSDTRGTPNKLLYSLADSGCEPDCGGPTPGPDPDGKLVSGVPVNGLSGSRGQKDYFYMDLQQGQQLTVVTIGGTGDADLYLRFGDKPTLNTWDCRPYRSGNSETCTVNVTQSGRYHVMLNAYSAYSGLTLQANF [N142P I144P N377P T404P],72.1 °C,10.2 °C,72.1 °C,10.2 °C,77.2 °C,13.3 °C,164 kcal/mol,77.2 °C,13.3 °C,163 kcal/mol
